According to article doi:10.1101/744821 (bioRxiv, 2019):

T1: biotinylated HEG1 cytoplasmic tail (a.a. 1274-1381) (UniProt Q9ULI3 1274-1381, biotin on the in vivo biotinylation peptide tag)
T1 sequence (looked up): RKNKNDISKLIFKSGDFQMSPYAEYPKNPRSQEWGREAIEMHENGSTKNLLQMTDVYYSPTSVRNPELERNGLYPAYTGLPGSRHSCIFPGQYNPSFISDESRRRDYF

B1: His6-EGFP-KRIT1(WT) FERM domain (417-736) (domain or fragment, human, UniProt O00522 417-736, looked up)
chain: KPYEKVRIYRMDGSYRSVELKHGNNTTVQQIMEGMRLSQETQQYFTIWICSENLSLQLKPYHKPLQHVRDWPEILAELTNLDPQRETPQLFLRRDVRLPLEVEKQIEDPLAILILFDEARYNLLKGFYTAPDAKLITLASLLLQIVYGNYESKKHKQGFLNEENLKSIVPVTKLKSKAPHWTNRILHEYKNLSTSEGVSKEMHHLQRMFLQNCWEIPTYGAAFFTGQIFTKASPSNHKVIPVYVGVNIKGLHLLNMETKALLISLKYGCFMWQLGDTDTCFQIHSMENKMSFIVHTKQAGLVVKLLMKLNGQLMPTERNS

Legend:
[1] = biological target: T1, biotinylated HEG1 cytoplasmic tail …; assay: flow cytometry on beads
[2] = biological target: B1; assay: flow cytometry on beads

EC50 [1] | IC50 [2] | Binder
32.4 nM |  | B1
 | 410 nM | SRRRDYF (peptide, UniProt Q9ULI3 1375-1381, looked up) [non-biotinylated HEG1 7-mer peptide (residues 1375-1381)]
